Assay results taken from US20210371518A1 (University of Texas, published 2021).
Changes are numbered by the printed parent chain.

B1: B4-87 (antibody, V domains shown)
VH: QSVKESGGDLVKPGASLTLTCTASGFSFISTYWICWVRQAPGKGLELIACIYTGGSGSTYYASWAKGRFTISKTSSTTVTLQLNSLTAADTATYFCARALYVDYVDYDYIDLWGPGTLVTVSS
VL: ELDLTQTPASVEAAVGGTVTIKCQASENIGSRLAWYQQKPGQPPKLLIYAASNLASGVSSRFKGSRSGTQFTLTISDLECADAAIYYCQCSYYGSTYVFGFGGGTEVEIK
notes: Rabbit monoclonal antibody
B2: B4-116-1 (antibody, V domains shown)
VH: EQSVEESGGDLVKPGASLTLTCAASGFSFSSTYCMCWVRQAPGKGLEWIACIHGVSTNNRWYASWPKGRFTISKTSSTTVTLQMTSLTAADTATYFCARSDTDYEWGLSLWGPGTLVTISS
VL: ELDLTQTPASVSEPVGGTVTIKCQASESIGSRLAWYQQKPGQRPKLLIYKASTLASGVPSRFSGSGSGTEFTLTVSDLECADVAAYYCQCAGQSSTWAFGGGTEVEIK
notes: Rabbit monoclonal antibody
B3: B4-116-2 (antibody, V domains shown)
VH: B2 VH
VL: B2 VL with D3V, L4M, S12E, E13A, P14V, E106V, I107V
notes: Rabbit monoclonal antibody
B4: B4-49 (antibody, V domains shown)
VH: QSLEESGGDLVKPGASLTLTCTASGFDFSSSGWICWVRQAPGKGLELIACIYSGRSGSTYYASWAKGRVTISKTSSTTVTLQMTSLTAADTATYFCARALYVDYVDYDYIDLWGPGTLVTVSS
VL: ELDLTQTPASVEAAVGGTVTIKCQASQSTGIRLAWYQQKPGQPPKLLMYATSNLASGVSSRFKGSGSGTEFTLTISDLECADAATYYCQYSYYGSSYVFDFGGGTEVEIK
notes: Rabbit monoclonal antibody
B5: B4-86 (antibody, V domains shown)
VH: EQSVESGGDLVKPEGSLTLTCTVSGFSFSSSYWICWVRQAPGKGLEWIGCIGTGSGSTYYGSWAKGRFTISKTSSTTVTLQMTSLTAADTATYFCVRGAGYSSYRLWGPGTLVTISS
VL: ELDMTQTPASVSEPVGGTVTIKCQASESVSNWLAWYQQKPGQRPKLLIYGASTLESGVPSRFSGSGSGTEFTLTISNLECADAATYYCQQGYDWDNIDNAFGGGTEVVVK
notes: Rabbit monoclonal antibody
B6: B4-72-2 (antibody, V domains shown)
VH: EQSVEESGGRLVTPGTPLTLTCTASGFSLSSYYMSWVRQAPGRGLEYIGVINTGGSAVYATWTKGRFTISRTSTTVDLKMTGLTTEDTATYFCARGWSRGDLWGQGTLVTISS
VL: ELDMTQTPSPVSAAVGGTVTIKCQSSQNVYDDDTLSWYQQKPGQPPKLLIYDASKLASGVPDRFSGSGSGTQFTLTISGVQCDDAATYYCLGVFHDGINNAFGGGTEVEIK
notes: Rabbit monoclonal antibody
B7: h193 (antibody, V domains shown)
VH: EVQLVESGGGLVQPGGSLRLSCAASGFSLSSSYWISWVRQAPGKGLEWIGSIDSGSVGITYYATWVKGRFTISRDNSKNTLYLQMNSLRAEDTAVYYCARHGDNWALDLWGQGTLVTVSS
VL: DLVMTQSPSTLSASVGDRVTITCQASQSINSWLAWYQQKPGKPPKLLIYKASTLASGVSSRFSGSGSGTEFTLTISSLQPDDVATYYCQHGYIRGDLDNVFGGGTKVEIKR
B8: B4-15-1 (antibody, V domains shown)
VH: SGGLEESGGRLVTPGTPLTLTCTASGFTINSAHMSWVRQAPGKGLEWIGFSTTGGPSYYANWAKGRFTISRTSTTVDLEITSPTIEDTATYFCARDGPGNNIDMDLWGQGTLVTITS
VL: ELDLTQTPASVSEPVGGTVTIKCQASQNRGGSIAWYQQKPGQPPKLLIYSASTLASGVPSRFSGSGYGTEFTLTISGVQCADAGTYYCQSTIYSISDIGAFGGGTEVVVK
notes: Rabbit monoclonal antibody against human LILRB4 ECD

These binders were tested against T1, human LILRB4 extracellular domain (ECD) recombinant protein (human, UniProt Q8NHJ6 22-259) (assay: Octet BLI, antibody on protein A sensor, recombinant human LILRB4 in solution).
T1 construct: extracellular domain; also called LILRB4 ECD; LILRB4-ECD
Procedure: FIG. 26 illustrates the kinetic binding measurements (sensor-grams) for exemplary LILRB4 antibodies determined using Octet. Antibody at 30 μg/mL was loaded to the proteins A sensor for 4 min. Following a short baseline in kinetics buffer, the loaded sensors were exposed to a series of recombinant human LILRB4 concentrations (0.1-200 nM) and background subtraction was used to correct for sensor drifting. All experiments were performed with shaking at 1,000 rpm. Background wavelength shifts were measured from reference sensors that were loaded only with antibody. ForteBio's data analysis software was used to fit the data to a 1:1 binding model to extract an association rate and dissociation rate. The KD was calculated by the ratio koff/kon using ForteBio's data analysis software 7.0.
Work on B1 yielded a Kd of 0.238 nM. In the case of B2, the Kd is reported as 0.82 nM. B3 was tested, and the Kd was 0.495 nM. B4 gave a Kd of 0.0233 nM. B5 gave a Kd of 0.344 nM. For B6, the Kd was 3.73 nM.

These binders were tested against T1, human LILRB4 extracellular domain (ECD) … (assay: ELISA, LILRB4 recombinant protein coated, anti-human IgG F(ab)2-HRP).
With B7 the “EC50 (read off the curve)” value was roughly 0.03 µg/mL.

Each binder was assayed against T1, human LILRB4 extracellular domain (ECD) … (assay: ELISA, coated LILRB4 ECD).
Procedure: FIG. 22 illustrates the determination of exemplary LILRB4 monoclonal antibody (mAbs) binding to human LILRB4 ECD using a concentration titration (0-10 μg/ml) by ELISA. X axis indicates the antibody concentrations and Y-axis is binding signals in OD (450 nm). LILRB4 ECD recombinant protein was coated on high absorption 96-well plates. Serial diluted (3-fold) LILRB4 mAb was added to the coated/blocked and detected using goat anti-rabbit IgG F(ab)₂-conjugated HRP as secondary antibody. The titration curves were fitted using 4-parameter fitting curve using the GraphPad software for EC50 estimation.
Binder B1 has an EC50 of 2.54 nM. With B8 the EC50 was 0.99 nM. Work on B2 yielded an EC50 of 2.58 nM. B3 was tested, and the EC50 was 1.7 nM. In the case of B4, the EC50 is reported as 1.01 nM. Binder B5 has an EC50 of 1.02 nM. In the case of B6, the EC50 is reported as 0.29 nM.

Each binder was assayed against T2, human LILRB4 D1 recombinant protein (human, UniProt Q8NHJ6 24-119, limits assumed) (assay: ELISA, LILRB4 D1 recombinant protein coated, anti-rabbit IgG F(ab)2-HRP).
T2 construct: domain: D1 domain; also called LILRB4 D1 domain (D1); Ig domain-1
T2 sequence (Q8NHJ6 24-119 limits assumed): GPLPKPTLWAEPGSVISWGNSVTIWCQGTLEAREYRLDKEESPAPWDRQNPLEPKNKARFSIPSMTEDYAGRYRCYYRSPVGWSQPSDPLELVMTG
Procedure: FIGS. 23A-23B. FIG. 23A is a schematic of the LILRB4 extracellular domain (ECD). […] FIG. 23B illustrates the determination of exemplary LILRB4 mAbs binding to Ig domain-1 (D1 domain) of human LILRB4. X axis indicates the antibody concentrations and Y-axis is binding signals in OD (450 nm). LILRB4 D1 recombinant protein was coated on high absorption 96-well plates. Serial diluted (3-fold) LILRB4 mAb was added to the coated/blocked plates and detected using goat anti-rabbit IgG F(ab)₂-conjugated HRP as secondary antibody.
With B1 the “EC50 (read off the curve)” value was roughly 0.2 µg/mL.
